Type in all cases: cell-based
The target in test [1] is T1, FGF-8 (Homo sapiens, UniProt P55075).
T1 construct: purchased R & D
T1 sequence (P55075 23-215 isoform P55075-3 limits assumed): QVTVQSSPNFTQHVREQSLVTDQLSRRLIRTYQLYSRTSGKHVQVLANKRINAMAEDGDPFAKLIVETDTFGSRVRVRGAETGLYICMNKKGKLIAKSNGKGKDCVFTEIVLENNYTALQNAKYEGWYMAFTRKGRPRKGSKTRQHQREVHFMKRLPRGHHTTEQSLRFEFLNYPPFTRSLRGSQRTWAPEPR
Nature of the test: Inhibition by antibody of FGF-8-promoted growth of rabbit synovial cells. The note with it: FGF-8 100 ng/mL, 0.1, 0.3, 1, 3 or 10 μg/ml tested. Here is the method:
(§1) Rabbit synovial cells were collected by the method of Hamilton et al. (Hamilton J. A. and Slywka J., J. Immunol. 126, 851-855, 1981). The isolated synovial cells were suspended in RPMI 1640 medium comprising 10 vol % FBS (FBS-comprising RPMI 1640 medium is hereinafter referred to as FBS/RPMI 1640), and 10,000 cells was inoculated at each well of a 96-well culture plate. After 24 hours of the culturing, the culture medium of each well was removed, and 200 μL of 0.2 vol % FBS/RPMI 1640 (non-stimulated group) or 0.2 vol % FBS/RPMI 1640 comprising FGF-8 (1, 10 or 100 ng/mL) was added. When the activity of the anti-FGF-8 neutralizing antibody was examined, 200 μL of 0.2 vol % FBS/RPMI 1640 comprising FGF-8 (100 ng/mL) (0 group) or 0.2 vol % FBS/RPMI 1640 comprising FGF-8 (100 ng/mL) and anti-FGF-8 neutralizing antibody KM1334 (0.1, 0.3, 1, 3 or 10 μg/ml) was added to each well. After 48 hours of the culturing, 9.25 kBq per well of [^3H]thymidine was added. The culturing was further performed for 24 hours, and the radioactivity of [^3H]thymidine incorporated in the cells was measured using a liquid scintillation counter (1205 Beta Plate, manufactured by Perkin Elmer Life Science Japan). Six experiments were performed for each condition, and the mean values and the standard error were calculated.

The target of test [2] is T1, FGF-8. Nature of the test: Inhibition by antibody of FGF-8-promoted production of matrix metalloproteinase-3 from rabbit chondrocytes. Particulars: FGF-8 100 ng/mL, 48 hours. On the procedure: Rabbit articular chondrocytes were isolated and cultured by the method described in Example 1. After the chondrocytes became confluent, the culture solution was replaced with 0.5 vol % FBS/DMEM, followed by the culturing for 24 hours. The culture solution was removed, and 1 mL of 0.5 vol % FBS/DMEM (non-stimulated group), 0.5 vol % FBS/DMEM comprising FGF-8 (100 ng/mL)(0 group) or 0.5 vol % FBS/DMEM comprising FGF-8 (100 ng/mL) and anti-FGF-8 neutralizing antibody KM1334 (1, 3 or 10 μg/mL) was added, followed by the culturing for 48 hours. After 48 hours, the culture medium was recovered, the matrix metalloproteinase-3 concentration in the culture medium was measured using rabbit matrix metalloproteinase-3 ELISA system (manufactured by Amersham Biosciences). Three experiments were performed for each condition, and the mean values and the standard error were calculated.

The target of test [3] is T1, FGF-8. Nature of the test: Inhibition by antibody of FGF-8-promoted growth of human synovial cells. The note with it: FGF-8 500 ng/mL. Here is the method: as §1, with “When the activity of the anti-FGF-8 neutralizing antibody was examined, 200 μL of 0.2 vol % FBS/RPMI 1640 comprising FGF-8 (100 ng/mL) (0 group) or 0.2 vol % FBS/RPMI 1640 comprising FGF-8 (100 ng/mL) and anti-FGF-8 neutralizing antibody KM1334 (0.1, 0.3, 1, 3 or 10 μg/ml) was added to each well. After 48 hours of the culturing, 9.25 kBq per well of [^3H]thymidine was added.” left out
The same experiment as in Example 3 was performed using human synovial cells derived from the rheumatoid arthritis patient (procured from Toyobo). […] Six experiments were performed for each condition, and the mean values and the standard error were calculated.

B1: KM1334: anti-FGF-8 neutralizing monoclonal antibody produced by hybridoma KM1334 (FERM BP-5451), mouse IgG1 subclass (antibody, V domains shown)
VH: QVQLQQSGAEVARPGASVKLSCKASGYTFTDYYLNWVKQRSGQGLEWIGEIDPGSDSIYYNENLEGRATLTADKSSSTAYMQLNSLTSEDSAVYFCARYGYSRYDVRFVYWGQGTLVTVST
VL: DVLMTQTPLSLPVSLGDQASISCRSSQSLVHSNGRTYLEWYLQKPGQSPKVLIYKVSNRISGVPDRFSGSGSGTDFTLKISRVEAEDLGVYFCFQGSHVPYTFGGGTKLEIK
As to B1, the “antibody concentration from which the FGF-8-dependent incorporation of [3H]thymidine was significantly inhibited” value with FGF-8 [1] is at least 0.3 µg/mL; with FGF-8 [3], at least 1 µg/mL. The “antibody concentration at which the production of matrix metalloproteinase-3 from the chondrocytes with FGF-8 was significantly inhibited” value with FGF-8 [2] was at least 1 µg/mL. Also, the figures for the “percent inhibition of matrix metalloproteinase-3 production” value in the test with FGF-8 [2] (antibody 1 μg/mL), with FGF-8 [2] (antibody 3 μg/mL) and in the test with FGF-8 [2] (antibody 10 μg/mL) were 72%, 74% and 100%, respectively.

The values above are taken from patent US7708999B2, “Remedies for arthritis” (Kyowa Hakko Kirin Co., Ltd., priority 2001, dated 2010).
